Measurements from the supplement of paper PMC9170038.

The sequences below were run on MS2 coat protein (assay: apparent KD of MS2 coat protein; higher = weaker reporter binding). Conditions: Eterna round: R107; input ligand: theophylline 2 mM.
Outline: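 Illumina sequencing clusters served as templates for on-chip transcription of the designed RNA switches. SNAP-549-labelled MS2 coat protein was then titrated in twofold steps from 0.7 or 1.5 nM to 3 µM, allowing 0.8–1.5 h per step at first and 10–20 min per step later. The buffer held 100 mM Tris-HCl pH 7.5, 80 mM KCl and 4 mM MgCl2, without or with constant ligand. Apparent KD is the median per design of normalised cluster binding-curve fits.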
“UGUAUGUGAUCUGAUACCAGAGUUGAUAAUCUGAGGAUCACCCUGGUAAGGCGAAAGCCACUCCCUUGGCAGCAGAUCGCAUACU” was tested, and the “apparent KD of MS2 coat protein” value was 175 nM. “GUAGCGACGACGGCCGCCACUCACAGGUGAGGGUAGACCAACCUUCACAUGAGGAUCACCCAUGUGAGGACCGGGUUGUCGGUAC [#11 Exclusion Tryptophan B]” was tested, and the “apparent KD of MS2 coat protein” value was 111 nM. For “GUCCUAGCGAGCACUCGCUAGGACGCGGAUACCAGCGAGGUCCAUCGCCCUUGGCAGCCGAACAUGAGGAUCACCCAUGUCGGUA [#1 Same State - Theophylline A Attempt #17 (HarryS)]”, the “apparent KD of MS2 coat protein” value was 18 nM. For “AUACAUGAGGAUCACCCAUGUCCUCGUGAUCGAGGACCGGUACGGCCGCCACUCGGUCCUCGCGAGGAGGAGUCAAAGACUCCAA [Omei Trp A SS A v4]”, the “apparent KD of MS2 coat protein” value was 113 nM. “CGCUACAUAGCGGCCGCCACUGUCAUGGCUACGAUAGGUCACUCGUACAUGAGGAUCACCCAUGUCAGGACCGGGCUAUCCUCGC [theeternabot_exclusion_MS2_Trp_B_20]” was tested, and the “apparent KD of MS2 coat protein” value was 112 nM. In the case of “GGAUAGGACAGAAGGAGCGACAUGAGGAUCACCCAUGUCUACCACGUCGAAAGACGCUCAUGUCAGGUAGGUCGCUGUCCUAUCG [ArgXB 9 #StaticStem #MS2LeftOffAptamer]”, the “apparent KD of MS2 coat protein” value is reported as 183 nM. With “GGCUAGGCUAGCGAUACCAGCAACCAACAUGAUCUGAGGAUCACCCAGGUAGUUGGACGUUGCCCUUGGCAGCGCUAGCCUAGCC [SSThB NP+V+V2 #12 Diff Apt, Same Structure]” the “apparent KD of MS2 coat protein” value was 12.2 nM. “ACAUUAGCCACGGCCGCCACUGCCUUAUGAUUAUAAGGAUUAAUGAACAUGAGGAUCACCCAUGUCAGGACCGGGUGCCUACCAU [SSTryp B #5]” was tested, and the “apparent KD of MS2 coat protein” value was 26.5 nM. “GUAGCGACGGCGGCCGCCACUCACAGGUGAGGGUAGACCAACCUUCACAUGAGGAUCACCCAUGUGAGGACCGGGCUGUCGCUAC [#13 Exclusion Tryptophan B]” was tested, and the “apparent KD of MS2 coat protein” value was 122 nM. In the case of “ACAUGAGGAUCACCCAUGUACAUGAGGGAAGGAGCGGUACAUGUGCCAGGUAGGUCGCCCAUGAGCAUCAGCCAUGUACAUCAGC [l,ommullin]”, the “apparent KD of MS2 coat protein” value is reported as 75.3 nM. With “AGUUACAUGAGGAUCACCCAUGUCCGGUUGCGAGGACCGGUACGGCCGCCACUCGGGUACAUCCCAGAAAAUACUGAAUGCCUGC [theeternabot_sameState_MS2_Trp_A_15]” the “apparent KD of MS2 coat protein” value was 84.5 nM.

Same assay, conditions: Eterna round: R107; input ligand: tryptophan 2.4 mM
For “AAUAAGAUGAGGAUCACCCAUCUAAAAGAUACCAGAGUGAUGAUCCUCCCUUGGCAGCUUAACGCUGAUUGAUUACAAUCAGCGA”, the “apparent KD of MS2 coat protein” value was 25.3 nM. In the case of “UCACAUGAGGAUCACCCAUGUACAGGCGAUACCAGCCGUACAUUGGGCCCUUGGCAGCGCACCGAGACCUUUAUAAGCACCUCGG [Zaoranorre]”, the “apparent KD of MS2 coat protein” value is reported as 15.7 nM. “ACACAUGAGGAUCACCCAUGUUCAAUAGAUACCAGUGAUACGGUGCACCCUUGGCAGCUGUUGCUGAGUGAUGGUUCCCUCGGUA [#23 SameState-TheophyllineA]” was tested, and the “apparent KD of MS2 coat protein” value was 41 nM. For “ACGAUAGGACCUGAGGAUCACCCAGGUGAUACCAGCCUGGAAACAGGCCCUUGGCAGCACCAAUACUCCAAUAACCUAUCGAAUA [TheoAX 11 #MicroSwitchBubble #AlternativeMS2]”, the “apparent KD of MS2 coat protein” value was 213 nM. In the case of “UGUAUGGACUGAAGGAGCGCCUCAAACAUGAGGAUCACCCAUGUGGACAAAUAAGUCCUUGGGCAGGUAGGUCGCAGUCCAUACU [ArgBX 7 #StaticStem #MS2Late]”, the “apparent KD of MS2 coat protein” value is reported as 66.1 nM. In the case of “CUGCCACAGAUAGAUACCAGAGGCGUGCAAGCUACAGCUCACAUGAGGAUCACCCAUGUUCUCCCUUGGCAGCUACGGUGUAAGG [theeternabot_exclusion_MS2_Theo_B_26]”, the “apparent KD of MS2 coat protein” value is reported as 19.4 nM. For “GUAUCGACAUGAGGAUCACCCAUGUCCGAAGGAGCGUUGGGAACAACAGGUAGGUCGCGGACAUAGAGCAUCCGGAAACGGAUGC [EAA NP+V+V2 #1]”, the “apparent KD of MS2 coat protein” value was 13.9 nM. For “UCGCUCUGGGUGAGAUCCGGAGAUAUGGAAGGAGCGCUGAUUCCAGCAGGUAGGUCGCCAACGGACAUGAGGAUCACCCAUGUAC [Same State - Arginine A (Freestyle 11)]”, the “apparent KD of MS2 coat protein” value was 43.1 nM. In the case of “UCGGCAGUGAACGAUACCAGCGUCACGUGGCCGGUGGUCACAUGAGGAUCACCCAUGUAACGCCCUUGGCAGCGUGCGCGUACCG [Zaancebi]”, the “apparent KD of MS2 coat protein” value is reported as 27.3 nM. With “UUAAGAGGCUAUCCACUUUGAUUUUGUGAUACCAGAAUAAUUUUAUUCCCUUGGCAGCAUGACAUGAGGAUCACCCAUGUGUCUU [SSTheo A #3]” the “apparent KD of MS2 coat protein” value was 36.9 nM. In the case of “AUGUCUGAGUCGGCCGCCACUGGGUGUGGGUGAUGCCGGAUGUUGUACAUGAGGAUCACCCAUGUCAGGACCGGGAUUCCCACGA [Receve]”, the “apparent KD of MS2 coat protein” value is reported as 10.2 nM. “GGAUAGGACAGAAGGAGCGACGUGAGGCGAAAGCCAAUCCUUCAACAUGAGGAUCACCCAUGUCAGGUAGGUCGCUGUCCUAUCG [ArgBX 5]” was tested, and the “apparent KD of MS2 coat protein” value was 22.5 nM. In the case of “ACAUAUUGGUGGUACCAACGAAGGCGGAAACGAGGACCGGUACGGCCGCCACUCGGCGACAUGAGGAUCACCCAUGUGGUUAAAA [Exclusion - Tryptophan A (Freestyle 2)]”, the “apparent KD of MS2 coat protein” value is reported as 972 nM. With “AGUACUCGAACGGAUACCAGCCGGACAUGAGGAUCACCCAUGUCCUACCAUGGUUCGGUUGGCCCUUGGCAGCCGUUCGUGUACA [Omei Theo B SS A v3]” the “apparent KD of MS2 coat protein” value was 203 nM. With “AAAGACAUGAGGAUCACCCAUGUGGGUGGGCGAGGACCGGUACGGCCGCCACUCGUGGGCGGGAAGGGAUAUUUAAUAAGGAAGA [same state--tryptophan A 1st shot]” the “apparent KD of MS2 coat protein” value was 131 nM. With “UGUAUGUGAUCUGAUACCAGAGUUGAUAAUCUGAGGAUCACCCUGGUAAGGCGAAAGCCACUCCCUUGGCAGCAGAUCGCAUACU” the “apparent KD of MS2 coat protein” value was 725 nM. With “GUAGCGACGACGGCCGCCACUCACAGGUGAGGGUAGACCAACCUUCACAUGAGGAUCACCCAUGUGAGGACCGGGUUGUCGGUAC [#11 Exclusion Tryptophan B]” the “apparent KD of MS2 coat protein” value was 146 nM. In the case of “GAUGAAGUAACUGAUACCAGUGUACUGACAUGAGGAUCACCCAUGUUGGGUUUUGUUGUACACCCUUGGCAGCAGAAUCUUUAUC [AstrosExyTheB#5]”, the “apparent KD of MS2 coat protein” value is reported as 45.8 nM. “GUCCUAGCGAGCACUCGCUAGGACGCGGAUACCAGCGAGGUCCAUCGCCCUUGGCAGCCGAACAUGAGGAUCACCCAUGUCGGUA [#1 Same State - Theophylline A Attempt #17 (HarryS)]” was tested, and the “apparent KD of MS2 coat protein” value was 9.86 nM. With “AUACAUGAGGAUCACCCAUGUCCUCGUGAUCGAGGACCGGUACGGCCGCCACUCGGUCCUCGCGAGGAGGAGUCAAAGACUCCAA [Omei Trp A SS A v4]” the “apparent KD of MS2 coat protein” value was 53.8 nM. For “GAUGAACUAUUUGAUACCAGACCACAUGAGGAUCACCCAUGUGAGUUUCGUCCUUAGCCGGUCCCUUGGCAGCAAAUAGUUUAUC [#27 Exclusion-TheophyllineB]”, the “apparent KD of MS2 coat protein” value was 16.7 nM. With “GGAUAGGACAGAAGGAGCGACAUGAGGAUCACCCAUGUCUACCACGUCGAAAGACGCUCAUGUCAGGUAGGUCGCUGUCCUAUCG [ArgXB 9 #StaticStem #MS2LeftOffAptamer]” the “apparent KD of MS2 coat protein” value was 113 nM. “GGCUAGGCUAGCGAUACCAGCAACCAACAUGAUCUGAGGAUCACCCAGGUAGUUGGACGUUGCCCUUGGCAGCGCUAGCCUAGCC [SSThB NP+V+V2 #12 Diff Apt, Same Structure]” was tested, and the “apparent KD of MS2 coat protein” value was 15.5 nM. In the case of “ACAUGAGGAUCACCCAUGUACAUGAGGGAAGGAGCGGUACAUGUGCCAGGUAGGUCGCCCAUGAGCAUCAGCCAUGUACAUCAGC [l,ommullin]”, the “apparent KD of MS2 coat protein” value is reported as 75 nM. “AGCAUGUUAUCAGAUACCAGACAUCUUUUUUUACGUAUUACAUGAGGAUCACCCAUGUUGGUCCCUUGGCAGCUGAAAUAUUUCA [JR_Nu_SSTheophyB_Sub022]” was tested, and the “apparent KD of MS2 coat protein” value was 219 nM.
